# According to patent US20130231277A1:
# Biological target: FGFR1c endogenously expressed by HEK293 cells transiently transfected with murine βKlotho (UniProt P11362)
# Assay: cell-based or functional assay
# FGFR1c endogenously expressed by HEK293 cells transiently transfected with murine βKlotho, sequence (P11362 22-822): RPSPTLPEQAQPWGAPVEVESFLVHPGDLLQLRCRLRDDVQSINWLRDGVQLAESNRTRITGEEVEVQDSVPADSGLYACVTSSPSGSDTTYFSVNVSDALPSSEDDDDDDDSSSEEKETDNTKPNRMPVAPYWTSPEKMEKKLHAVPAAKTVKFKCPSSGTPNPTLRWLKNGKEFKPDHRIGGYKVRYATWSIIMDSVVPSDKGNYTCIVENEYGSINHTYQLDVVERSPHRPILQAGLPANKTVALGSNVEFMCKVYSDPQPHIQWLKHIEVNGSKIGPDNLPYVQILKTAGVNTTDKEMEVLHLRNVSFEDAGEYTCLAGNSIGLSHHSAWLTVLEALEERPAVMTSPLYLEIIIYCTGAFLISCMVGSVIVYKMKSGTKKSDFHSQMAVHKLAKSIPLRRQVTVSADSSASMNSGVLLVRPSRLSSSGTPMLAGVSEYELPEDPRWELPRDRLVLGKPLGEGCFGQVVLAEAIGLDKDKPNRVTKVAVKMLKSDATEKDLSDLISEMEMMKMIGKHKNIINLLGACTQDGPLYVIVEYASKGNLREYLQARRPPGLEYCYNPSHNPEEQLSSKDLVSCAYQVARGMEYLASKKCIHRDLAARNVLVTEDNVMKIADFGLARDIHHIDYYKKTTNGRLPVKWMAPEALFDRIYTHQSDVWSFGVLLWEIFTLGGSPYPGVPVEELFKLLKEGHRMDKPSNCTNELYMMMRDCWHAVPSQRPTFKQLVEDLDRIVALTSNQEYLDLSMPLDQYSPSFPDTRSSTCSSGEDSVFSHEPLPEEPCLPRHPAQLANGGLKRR
substance,measurement,value
Q104M single mutant of human FGF21 (SEQ ID NO: 152) (from UniProt Q9NSA1 29-209) (ligand),"Induction of Egr1 protein expression (immunoblot, HEK293 cells co-expressing FGFR1c and βKlotho)",30 ng/mL
